Consider four molecules from patent US20230212587A1, “Mutant Hydroxyphenylpyruvate Dioxygenase Polypeptide, Encoding Gene Thereof and Use Therefor” (Beijing Dabeinong Biotechnology Co., Ltd., priority 2019, published 2023).

Holding throughout (assay type): in vivo
In one assay the test system is rice T1 plants. Put plainly: Herbicide tolerance of transgenic rice T1 plants to topramezone. The settings on record: topramezone 50 and 100 g ai/ha, 7 DAT, compared to wild-type. An excerpt:
(§1) The Arabidopsisthaliana T1 plants into which the AsHPPDm-F372A-02 nucleotide sequence was introduced, Arabidopsis thaliana T1 plants into which the AsHPPD-02 nucleotide sequence was introduced and wild-type Arabidopsisthaliana plants (18 days after sowing) were sprayed with topramezone at four different concentrations, i.e., 25 g ai/ha (one-fold field concentration, 1×), 50 g ai/ha (two-fold field concentration, 2×), 100 g ai/ha (four-fold field concentration, 4×) and 0 g ai/ha (water, 0×) to determine the tolerance of Arabidopsisthaliana to the herbicide. The degree of damage caused by the herbicide was measured for each plant according to the proportion of bleached leaf area (the proportion of bleached leaf area=bleached leaf area/total leaf area×100%) 7 days after spraying (7 DAT): the case where there is basically no bleached phenotype is defined as grade 0, the case where the proportion of bleached leaf area is less than 50% is defined as grade 1,the case where the proportion of bleached leaf area is more than 50% is defined as grade 2, and the case where the proportion of bleached leaf area is 100% grade is defined as grade 3.
The rice T1 plants into which the AsHPPDm-F372A-02 nucleotide sequence was introduced, rice T1 plants into which the AsHPPDm-F372A-A110 nucleotide sequence was introduced, rice T1 plants into which the ZmHPPDm-F372A-02 nucleotide sequence was introduced, rice T1 plants into which the PfHPPDm-F372A-02 nucleotide sequence was introduced and wild-type rice plants (V3-V4 at seedling stage) were sprayed with topramezone at two different concentrations respectively, i.e. 50 g ai/ha (2-fold field concentration, 2 ×) and 100 g ai/ha (4-fold field concentration, 4 ×) to detect the herbicide tolerance of rice plants. According to the method in point 6 of Example 1, after 7 days of spraying (7 DAT), the damage degree of each plant by the herbicide was statistically analyzed, and the scoring and resistance evaluation were carried out accordingly. The rice T1 plants into which AsHPPDm-F372A-02 nucleotide sequence was introduced were of two strains in total (S12 and S13), rice T1 plants into which AsHPPDm-F372A-A1 10 nucleotide sequence was introduced were of two strains in total (S14 and S15), rice T1 plants into which ZmHPPDm-F372A-02 nucleotide sequence was introduced were of two strains in total (S16 and S17), rice T1 plants into which PfHPPDm-F372A-02 nucleotide sequence was introduced were of two strains in total (S18 and S19), and the wild-type rice plants were of one strain in total (CK2); and 8 plants were selected from each strain and tested.

In assay [1] the test system is soybean T1 plants. Put plainly: Tolerance of transgenic soybean T1 plants to isoxaflutole. The settings on record: isoxaflutole 140 and 280 g ai/ha, 7 DAT, compared to control vector and wild-type.
From the text: as §1
(§2) In order to further verify the tolerance effect of HPPD (F372A) on other HPPD inhibitors, the soybean T1 plants into which the AsHPPDm-F372A-02 nucleotide sequence was introduced, soybean T1 plants into which the ZmHPPDm-F372A-02 nucleotide sequence was introduced, soybean T1 plants into which the PfHPPDm-F372A-02 nucleotide sequence was introduced, soybean T1 plants into which the AsHPPDm-F372A-A110 nucleotide sequence was introduced, soybean T1 plants into which the control vector DBN11375NN was introduced in Example 8, and the wild-type soybean plants (V3-V4 at seedling stage) were sprayed as follows to detect the herbicide tolerance of each soybean plants, (1) 140 g ai/ha (2-fold field concentration, 2 ×) isoxaflutole; (2) 280 g ai/ha (4-fold field concentration, 4 ×) isoxaflutole; (3) 210 g ai/ha (2-fold field concentration, 2 ×) mesotrione; (4) 420 g ai/ha (4-fold field concentration, 4 ×) mesotrione. According to the method in point 6 of Example 1, after 7 days of spraying (7 DAT), the damage degree of each plant by the herbicide was statistically analyzed, and the scoring and resistance evaluation were carried out accordingly. […]

For assay [2], the system named is soybean T1 plants. The assay can be described thus: Tolerance of transgenic soybean T1 plants to mesotrione. The settings on record: mesotrione 210 and 420 g ai/ha, 7 DAT, compared to control vector and wild-type.
From the text: as §1, §2

B1: AsHPPDm-F372A-A110: Avena sativa HPPD with F372A and deletion of alanine at position 110, SEQ ID NO: 412 (protein)
chain: MPPTPATATGAAAAAVTPEHAARSFPRVVRVNPRSDRFPVLSFHHVELWCADAASAAGRFSFALGAPLAARSDLSTGNSAHASLLLRSGALAFLFTAPYAPPPQEAATAATASIPSFSADAARTFAAAHGLAVRSVGVRVADAAEAFRVSVAGGARPAFAPADLGHGFGLAEVELYGDVVLRFVSYPDETDLPFLPGFERVSSPGAVDYGLTRFDHVVGNVPEMAPVIDYMKGFLGFHEFAEFTAEDVGTTESGLNSVVLANNSEAVLLPLNEPVHGTKRRSQIQTYLEYHGGPGVQHIALASNDVLRTLREMRARTPMGGFEFMAPPQAKYYEGVRRIAGDVLSEEQIKECQELGVLVDRDDQGVLLQIATKPVGDRPTFFLEMIQRIGCMEKDEVGQEYQKGGCGGFGKGNFSELFKSIEDYEKSLEVKQSVVAQKS
modifications: AsHPPDm-F372A-A110 Amino Acid Sequence
Consider B1, for which the “tolerance to topramezone, in words” value with rice T1 plants is reported as “higher tolerance”. Also, the “tolerance to isoxaflutole, in words” value in the assay on soybean T1 plants [1] was “different degrees of tolerance”. Besides, the “tolerance to mesotrione, in words” value in the assay on soybean T1 plants [2] is “different degrees of tolerance”.

B2: ZmHPPDm-F372A-02: Zea mays HPPD mutant F372A, SEQ ID NO: 20 (protein)
chain: MPPTPTAAAAGAAVAAASAAEQAAFRLVGHRNFVRFNPRSDRFHTLAFHHVELWCADAASAAGRFSFGLGAPLAARSDLSTGNSAHASLLLRSGSLSFLFTAPYAHGADAATAALPSFSAAAARRFAADHGLAVRAVALRVADAEEAFRTSVAAGARPAFGPVDLGRGFRLAEVELYGDVVLRYVSYPDGAAGEPFLPGFEGVASPGAADYGLSRFDHIVGNVPELAPAAAYFAGFTGFHEFAEFTTEDVGTAESGLNSMVLANNSENVLLPLNEPVHGTKRRSQIQTFLDHHGGPGVQHMALASDDVLRTLREMQARSAMGGFEFMAPPTSDYYDGVRRRAGDVLTEAQIKECQELGVLVDRDDQGVLLQIAPKPVGDRPTLFLEIIQRIGCMERDEKGQEYQKGGCGGFGKGNFSQLFKSIEDYEKSLEAMQAAAAATAQGS
modifications: ZmHPPDm-F372A Amino Acid Sequence
As for B2, in the assay on rice T1 plants, the “tolerance to topramezone, in words” value was “higher tolerance”. The “tolerance to isoxaflutole, in words” value in the assay on soybean T1 plants [1] is reported as “different degrees of tolerance”. For the same molecule, the “tolerance to mesotrione, in words” value in the assay on soybean T1 plants [2] was “different degrees of tolerance”.

B3: AsHPPDm-F372A-02: Avena sativa HPPD mutant F372A, SEQ ID NO: 4; gene SEQ ID NO: 6 (protein)
chain: MPPTPATATGAAAAAVTPEHAARSFPRVVRVNPRSDRFPVLSFHHVELWCADAASAAGRFSFALGAPLAARSDLSTGNSAHASLLLRSGALAFLFTAPYAPPPQEAATAAATASIPSFSADAARTFAAAHGLAVRSVGVRVADAAEAFRVSVAGGARPAFAPADLGHGFGLAEVELYGDVVLRFVSYPDETDLPFLPGFERVSSPGAVDYGLTRFDHVVGNVPEMAPVIDYMKGFLGFHEFAEFTAEDVGTTESGLNSVVLANNSEAVLLPLNEPVHGTKRRSQIQTYLEYHGGPGVQHIALASNDVLRTLREMRARTPMGGFEFMAPPQAKYYEGVRRIAGDVLSEEQIKECQELGVLVDRDDQGVLLQIATKPVGDRPTFFLEMIQRIGCMEKDEVGQEYQKGGCGGFGKGNFSELFKSIEDYEKSLEVKQSVVAQKS
modifications: AsHPPDm-F372A Amido Acid Sequence
Consider B3, for which the “tolerance to topramezone, in words” value with rice T1 plants is reported as “higher tolerance”. Further, the “tolerance to isoxaflutole, in words” value with soybean T1 plants [1] was “different degrees of tolerance”. Moreover, the “tolerance to mesotrione, in words” value in the assay on soybean T1 plants [2] was “different degrees of tolerance”.

B4: PfHPPDm-F372A-02: Pseudomonas fluorescens HPPD mutant F372A, SEQ ID NO: 30 (protein)
chain: MADLYENPMGLMGFEFIEFASPTPGTLEPIFEIMGFTKVATHRSKNVHLYRQGEINLILNNEPNSIASYFAAEHGPSVCGMAFRVKDSQKAYNRALELGAQPIHIDTGPMELNLPAIKGIGGAPLYLIDRFGEGSSIYDIDFVYLEGVERNPVGAGLKVIDHLTHNVYRGRMVYWANFYEKLFNFREARYFDIKGEYTGLTSKAMSAPDGMIRIPLNEESSKGAGQIEEFLMQFNGEGIQHVAFLTDDLVKTWDALKKIGMRFMTAPPDTYYEMLEGRLPDHGEPVDQLQARGILLDGSSVEGDKRLLLQIASETLMGPVFFEFIQRKGDDGFGEGNFKALFESIERDQVRRGVLTAD
modifications: PfHPPDm-F372A Amino Acid Sequence
B4: the “tolerance to topramezone, in words” value in the assay with rice T1 plants was “higher tolerance”. Also, in the assay on soybean T1 plants [1], the “tolerance to isoxaflutole, in words” value was “different degrees of tolerance”. For the same molecule, the “tolerance to mesotrione, in words” value with soybean T1 plants [2] was “different degrees of tolerance”.
